The nature of the data set: label from the status in PepcDB records.
For “MRKPKITVIGGGTGSPVILKSLREKDVEIAAIVTVADDGGSSGELRKNMQQLTPPGDLRNVLVAMSDMPKFYEKVFQYRFSEDAGAFAGHPLGNLIIAGLSEMQGSTYNAMQLLSKFFHTTGKIYPSSDHPLTLHAVFQDGTEVAGESHIVDHRGIIDNVYVTNALNDDTPLASRRVVQTILESDMIVLGPGSLFTSILPNIVIKEIGRALLETKAEIAYVCNIMTQRGETEHFTDSDHVEVLHRHLGRPFIDTVLVNIEKVPQEYMNSNRFDEYLVQVEHDFVGLCKQVSRVISSNFLRLENGGAFHDGDLIVDELMRIIQVKK”, the protein production result is given as “not failed”.

Regarding “MTIYAAGLPAFLSYFSIGLVCFAIFSTIYTRLTPHEEVELIKAGNISAVVAFLGALIGFSLPLASAAAHSVSLPDYVIWAAIGLLVQVLAFYIAKLTMTDLHLKITEGNVAAGLWSGGIAVVIGTLNAACMAY”, the protein production result is on record as “failed”.

Consider “FLTEFINYIKKSKVVLLEDLAFQMGLRTQDAINRIQDLLTEGTLTGVIDDRGKFIYITP”, for which the protein production entry is “not failed”.

“MDFSVLLASLGISILELSEASAVAVIFQGIYKNSKPFLYAIAGILIVLVPVFTLGQYIVLLPINYVLLVAAVILAYFGYKLLRSARRSFKGSKKKHEEKEEGIMTVFVVSATEALEAGLVILALIPQSFSSALLGTGIAVIIVIALTIALRSQIMKIRVPHLKFVLSALLFGLATLFVAEALVDIDEVFLPLFFVIYLGVNYLVIKL”: the protein production result was “failed”.

Regarding “MEKAPLLLETVEQAVRILQESPFVAIWNYKVLSVQAGAVALALPAQPQFYRPGGIIQGGCLMTLADTAFWLAAMTELGIDAPIVTLEMKTHFLRAAQADVYCRAEVMKSGRRVTYGTATITDAAGQTLSHHTLTYLAALEHHHHHH”, the protein production entry was “failed”.

On to “MLSHMDGGTAGARVREVGWLAATLTALLLALLLEHYVIHEQMILPWIAVSPEVPPWMLGAQVVPEIIVCFLFGWRLRGLGWIVIYGAAAAALRQSFYALLTRIGASGHPETLFGPPSEFARTAPLVAVMYFMAFGLASMGAREPGPLPGARSRP”, for which the protein production entry was “failed”.

On to “MSLSINSREVLAEKVKNAVNNQPVTDMHTHLFSPNFGEILLWDIDELLTYHYLVAEVMRWTDVSIEAFWAMSKREQADLIWEELFIKRSPVSEACRGVLTCLQGLGLDPATRDLQVYREYFAKKTSEEQVDTVLQLANVSDVVMTNDPFDDNERISWLEGKQPDSRFHAALRLDPLLNEYEQTKHRLRDWGYKVNDEWNEGSIQEVKRFLTDWIERMDPVYMAVSLPPTFSFPEESNRGRIIRDCLLPVAEKHNIPFAMMIGVKKRVHPALGDAGDFVGKASMDGVEHLLREYPNNKFLVTMLSRENQHELVVLARKFSNLMIFGCWWFMNNPEIINEMTRMRMEMLGTSFIPQHSDARVLEQLIYKWHHSKSIIAEVLIDKYDDILQAGWEVTEEEIKRDVADLFSRNFWRFVGRNDHVTSVKVEQQTEGHHHHHH”, for which the protein production result is given as “not failed”.

As to “MKFEKRQVYYVVITFAICYAIQAYWGAVSNILTTLHKAIFPFLMGAGIAYIINIVMSVYERLYIKLFKGSRLLMAIKRSVSMILSYATFIGLIVWLFSIVIPDLISSLSSLLVIDTGALAKLVNNLNENKQISEVLNYMGTDKDLVSTLSGYSQQILKQVLSVLTNLLTSVSSIAATLLNVFVSFIFSIYVLANKEQLGRQFNLLIDTYLGSTGKTFHYVRHILHQRFHGFFVSQTLEAMILGSLTVIGMLIFQFPYALTVGVLVAFTALIPVVGAYIGVTIGFILIATESLTEAFLFVLFLILLQQFEGNVIYPKVVGGSIGLPSMWVLMAITIGGALWGILGMLLAVPVAATIYQIVKDHIIKRQTLRNCARTYR”, the protein production result is “failed”.

As to “MQEESHIEEVEIQNKLEVAPALISVHPSQKSVAVAVGSDLRIFDLIENCPVSLVDESDGPIRKESIRAIRYSTSGKLFVSAGDDKLVKIWSADSWRCLNTVCSEKRVSAVAISSDDSHVCYADKFGVVWVIELDGINDGKTLPSKKGALLLSHYCSIITSLEFSPDGRYILSADRDFKIRVTVFPKKPLEGAHEIQSFCLGHSEFITCTAFVSTPELTQGYLMSGSGDSTVRLWDITSGSLLDTCEVSTVAGHAESNENESPTQVTVTDICAIPNSSLAAVAIQSFQGIFLLSCDLTAHTLSITKVIKIPGESFIPTSIAVSASSRLLWMVSGASNLPGSNHPGFSRVRVISCLETESSSILEDEQIPGGTKLLEQLQGKVTIEESVMSAAAEAVRAAMSSLLMKKQYSEEKREFRKRTRNDKKTTR”, the protein production result is listed as “failed”.

Regarding “MKIESAQIIELPKILDKRGNLSIIEEFKNIPFKIERTYWIYDVPGGESRGGHAYRENEEFIVALSGSFDVVLDDGNNKKIFSLNRSYYGLYVPKGLWREMNNFSTNSLALILSSTVYEEKDYIRDYNEFLKMKRKLEHHHHHH”, the protein production entry was “failed”.

On to “MATCIWLRSCGARRLGSTFPGCRLRPRAGGLVPASGPAPGPAQLRCYAGRLAGLSAALLRTDSFVGGRWLPAAATFPVQDPASGAALGMVADCGVREARAAVRAAYEAFCRWREVSAKERSSLLRKWYNLMIQNKDDLARIITAESGKPLKEAHGEILYSAFFLEWFSEEARRVYGDIIHTPAKDRRALVLKQPIGVAAVITPWNFPSAMITRKVGAALAAGCTVVVKPAEDTPFSALALAELASQAGIPSGVYNVIPCSRKNAKEVGEAICTDPLVSKISFTGSTTTGKILLHHAANSVKRVSMELGGLAPFIVFDSANVDQAVAGAMASKFRNTGQTCVCSNQFLVQRGIHDAFVKAFAEAMKKNLRVGNGFEEGTTQGPLINEKAVEKVEKQVNDAVSKGATVVTGGKRHQLGKNFFEPTLLCNVTQDMLCTHEETFGPLAPVIKFDTEEEAIAIANAADVGLAGYFYSQDPAQIWRVAEQLEVGMVGVNEGLISSVECPFGGVKQSGLGREGSKYGIDEYLELKYVCYGGL”, for which the protein production entry was “failed”.

As to “MRPTITALVLTYNGERLLDRCLGSLAFCDRILVVDSFSTDATVAIAQAAGAEVLQRKWEGPGPQFAFALEKISDGWIVSLDQDEICSEELRDSILAATAADSGEAGYWIPRRSWYFDRFLKHSGWYPDHLLRLFRAGRMRVEVSGAHYSFHPDGETGTLTGDILHYPYESFRQHLDKVNDYAQKGADDLRAKGKRGGLCAGLCHGAGRFIRIYIIKRGFLDGRAGFINAIHGAFYAFLKHLRIEEGDWGRPFEHKLEHHHHHH”, the protein production entry is “not failed”.

With “MNFWEVVLIVVNFSLLSWILLIGRETKKWSKLATLIAVVMVTVQLLAEGFRWQMIPAYVSPVILILCYLLAGRKKGFRSSGIFIVKTSLLCIYLSVAVALPLLMPVFSFEEPTGPHRVGTKLYHWVDHQRNEPYSKNPNDRRELMVQIWYPAAEKSKGDPEPYIRNINELSKGLEKTLSIPAFAFSHMELVKSHSFMDLQLSDSENHYPILLFSHGFNGFRNQNTFQVEELASQGYIVLSIDHTFDAAATVFPGGRTAYVQPINLTDEGDSHIKLWEEDVSFVLNQIEKLNENDETGFFTGRLDTSRIGMFGHSYGGATAAQILAKDSRVKAAINMDGTLYGEILPESGIGKPFLLMNAEEPDEADPFEVRERYGRGLAGGGMSMVIPHTDHTSFTDLHLFSPLLQSPGENPKEVHRIINEFSLAFFDQYVKQKDDGSTLKRLITQYPEVNFKINR”, the protein production entry is reported as “failed”.

Turning to “MVVTPLIVLLVSVLGYANLNSTELGKLKLNRLVPSRLAITLFISGTVILFGAVFATFLLLLLWGLITLVVSGSLSSAWVAMQTLTGSPGGVEPDKSSVLLLFTIGLVISFLSVTKFQSKADANWKQNNSKFLIHKLVDDELELFLLRALEMDDFIPHNGDESPDKRMLVRVVLSNRKVYIGNLIRCDITRGVCSNIVLVPMHSGYQDESTLELQLTEHYEKHYSAELSSDATELQIKDFLNQYSLTIPVHHLVTASLFDLTAYQKFLTEKLNSM”, the protein production entry was “failed”.

The values above are taken from a protein production outcome set (Wang et al. 2014).
